From patent US20220153854A1 (Ablynx, published 2022)

Assays:
human OX40L [1] = target: T1, human OX40L (human, UniProt P23510 51-183); test: Gyrolab in-solution affinity, 24 h incubation; 95% CI 64.7-91.0 pM
T1 construct: Protein in solution or immobilised (SPR, Gyrolab); construct not described; also called huOX40L; hOX40L
T1 sequence (looked up): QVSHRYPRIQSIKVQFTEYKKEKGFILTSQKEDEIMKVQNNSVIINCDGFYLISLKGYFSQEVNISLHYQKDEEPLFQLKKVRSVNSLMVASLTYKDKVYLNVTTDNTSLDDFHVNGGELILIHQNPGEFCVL
Protocol: (§1) Under receptor-controlled measurements a serial dilution of OX40L (ranging from 1.3 μM-0.031 μM), IL-13 (ranging from 0.1 μM-0.25 fM), or serum albumin (ranging from 100 μM-3.2 μM) and a fixed amount of ISVD construct F027100187 (5 nM in case of OX40L, […] in case of IL-13 and 30 nM in case of HSA and cyno SA) were mixed to allow interaction and incubated for either 24 or 48 hours (in case of OX40L and IL-13) or 2 hours (in case of serum albumin) to reach equilibrium.
(§2) Biotinylated human OX40L/IL-13/serum albumin was captured in the microstructures of a Gyrolab Bioaffy 1000 CD, which contains columns of beads and was used as a molecular probe to capture free F027100187 from the equilibrated solution. The mixture of OX40L/IL13/serum albumin and F027100187 (containing free OX40UIL-13/serum albumin, free F027100187 and OX40L/IL13/serum albumin—F027100187 complexes) was allowed to flow through the beads, and a small percentage of free F027100187 was captured, which is proportional to the free ISVD construct concentration. A fluorescently labeled anti-ISVD antibody, ABH0086-Alexa647, was then injected to label any captured F027100187 and after rinsing away excess of fluorescent probe, the change in fluorescence was determined. Fitting of the dilution series was done using Gyrolab Analysis software, where KD- and receptor-controlled curves were analyzed to determine the KD value.

human serum albumin = target: T2, human serum albumin (human, UniProt P02768 25-609); test: Gyrolab in-solution affinity, 2 h incubation; 95% CI 5.5-7.6 nM
T2 construct: also called HSA; HAS
Protocol: as §1, §2

rhesus IL-13 = target: T3, rhesus IL-13 (rhesus monkey, UniProt Q864V6 19-132, limits assumed); test: Gyrolab in-solution affinity, 48 h incubation; 95% CI 6.8-39.6 pM
T3 construct: also called rhesus monkey IL-13
Protocol: as §1, §2

human CD30L = target: T4, human CD30L (human, UniProt P32971 63-234, limits assumed); test: SPR (ProteOn XPR36), cytokine immobilised by amine coupling
T4 construct: also called hCD30L
T4 sequence (looked up): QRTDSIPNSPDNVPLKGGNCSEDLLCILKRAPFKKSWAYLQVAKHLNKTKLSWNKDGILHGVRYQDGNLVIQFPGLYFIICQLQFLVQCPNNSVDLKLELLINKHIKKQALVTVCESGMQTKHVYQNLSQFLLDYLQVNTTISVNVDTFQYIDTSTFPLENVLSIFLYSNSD
Protocol: (§3) Absence of binding to OX40L and IL-13 related human cytokines was assessed via SPR (Proteon XPR36). As IL-13 related cytokine, IL-4 was assessed. As OX40L related targets, human TRAIL, CD30L, CD40L and RANKL were assessed.
(§4) To this end, the cytokines were immobilized on a ProteOn GLC sensor chip at 25 μg/mL for 600 s using amine coupling, with 80 seconds injection of EDC/NHS for activation and a 150-seconds injection of 1 M Ethanolamine HCl for deactivation (ProteOn Amine Coupling Kit. cat. 176-2410). Flow rate during activation and deactivation was set to 30 μl/min, and during ligand injection to 25 μl/min. The pH of the 10 mM acetate immobilization buffer was 6.0 for all cytokines, except for RANKL where the pH was 5.0.
(§5) Next, 1 μM of F027100187 was injected for 2 minutes and allowed to dissociate for 600 s at a flow rate of 45 μL/min. As running buffer PBS (pH7.4)+0.005% Tween 20 was used. As positive controls, 100 nM α-hIL-4, α-hTRAIL, α-hCD30L, α-hCD40L Ab and α-hRANKL VHH (Nanobody®, Nb) were injected. Interaction between F027100187 and the positive controls with the immobilized targets was measured by detection of increases in refractory index which occurs as a result of mass changes on the chip upon binding.

human TRAIL = target: T5, human TRAIL (human, UniProt P50591 114-281, limits assumed); test: as above
T5 construct: also called hTRAIL
Protocol: as §3, §4, §5

human IL-4 = target: T6, human IL-4 (human, UniProt P05112 25-153); test: as above
T6 construct: also called hIL-4
T6 sequence (looked up): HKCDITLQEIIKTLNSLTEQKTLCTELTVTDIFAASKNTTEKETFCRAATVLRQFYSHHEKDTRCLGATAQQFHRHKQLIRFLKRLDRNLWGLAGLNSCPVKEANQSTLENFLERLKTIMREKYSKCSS
Protocol: as §3, §4, §5

human RANKL = target: T7, human RANKL (human, UniProt O14788 140-317, limits assumed); test: as above
T7 construct: also called hRANKL
T7 sequence (looked up): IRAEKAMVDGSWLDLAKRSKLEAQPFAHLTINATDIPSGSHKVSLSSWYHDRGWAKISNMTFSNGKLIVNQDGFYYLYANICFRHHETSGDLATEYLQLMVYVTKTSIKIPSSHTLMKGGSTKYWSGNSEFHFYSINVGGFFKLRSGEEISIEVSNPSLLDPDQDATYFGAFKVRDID
Protocol: as §3, §4, §5

human CD40L = target: T8, human CD40L (human, UniProt P29965 113-261, limits assumed); test: as above
T8 construct: also called hCD40L
T8 sequence (looked up): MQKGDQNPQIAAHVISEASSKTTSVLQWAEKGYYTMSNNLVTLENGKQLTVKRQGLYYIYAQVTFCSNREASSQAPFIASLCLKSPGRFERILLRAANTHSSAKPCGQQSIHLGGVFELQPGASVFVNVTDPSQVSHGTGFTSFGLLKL
Protocol: as §3, §4, §5

human OX40L [2] = target: T1, human OX40L; test: Gyrolab in-solution affinity, 24 h incubation; 95% CI 108-141 pM
Protocol: as §1, §2

T3 sequence (Q864V6 19-132 limits assumed): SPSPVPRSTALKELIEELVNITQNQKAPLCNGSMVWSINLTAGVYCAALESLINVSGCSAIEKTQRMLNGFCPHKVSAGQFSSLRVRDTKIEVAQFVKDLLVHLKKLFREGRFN
T5 sequence (P50591 114-281 limits assumed): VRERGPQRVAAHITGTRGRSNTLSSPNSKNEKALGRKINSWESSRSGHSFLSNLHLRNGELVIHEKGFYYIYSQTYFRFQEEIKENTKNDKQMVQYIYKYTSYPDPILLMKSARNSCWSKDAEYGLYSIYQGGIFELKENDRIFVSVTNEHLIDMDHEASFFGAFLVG
T2 sequence (P02768 25-609 limits assumed): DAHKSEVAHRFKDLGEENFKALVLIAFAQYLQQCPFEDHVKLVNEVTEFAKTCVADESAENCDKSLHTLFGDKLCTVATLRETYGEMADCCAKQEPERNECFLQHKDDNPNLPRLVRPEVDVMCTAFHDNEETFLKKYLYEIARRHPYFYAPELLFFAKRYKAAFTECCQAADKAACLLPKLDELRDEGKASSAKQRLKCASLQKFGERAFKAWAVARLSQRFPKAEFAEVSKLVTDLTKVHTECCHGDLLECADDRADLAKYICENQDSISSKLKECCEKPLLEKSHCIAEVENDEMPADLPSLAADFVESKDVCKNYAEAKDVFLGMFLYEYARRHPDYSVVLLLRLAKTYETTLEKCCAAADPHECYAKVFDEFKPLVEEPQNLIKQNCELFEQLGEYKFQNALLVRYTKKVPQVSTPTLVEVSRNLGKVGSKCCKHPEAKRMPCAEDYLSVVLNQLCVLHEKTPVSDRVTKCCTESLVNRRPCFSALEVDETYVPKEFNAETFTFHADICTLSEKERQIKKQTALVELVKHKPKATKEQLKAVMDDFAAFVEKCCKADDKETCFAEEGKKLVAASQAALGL

B1: ISVD construct F027100187 (other)
chain: DVQLVESGGGVVQPGGSLRLSCAASRSIGRYDRMGWYRHRPGEPRELVATITGGSSINYGDSVKGRFTISIDNSKNTVYLQMNSLRPEDTALYYCNFNKYQISRDTWGQGTLVTVSSGGGGSGGGSEVQLVESGGGVVQPGGSLRLSCAASGRTFSSYRMGWFRQAPGKEREFVAALSGDGYSTYTANSVKGRFTISRDNSKNTVYLQMNSLRPEDTALYYCAAKLQYVSGWSYDYPYWGQGTLVTVSSGGGGSGGGSEVQLVESGGGVVQPGGSLRLSCAASGFTFRSFGMSWVRQAPGKGPEWVSSISGSGSDTLYADSVKGRFTISRDNSKNTLYLQMNSLRPEDTALYYCTIGGSLSRSSQGTLVTVSSGGGGSGGGSEVQLVESGGGVVQPGGSLRLSCAASGFTFNNYAMKWVRQAPGKGLEWVSSITTGGGSTDYADSVKGRFTISRDNSKNTLYLQMNSLRPEDTALYYCANVPFGYYSEHFSGLSFDYRGQGTLVTVSSA
notes: Tetravalent, trispecific single-chain construct of four VHH (ISVD) domains: one against OX40L, two against IL-13, one against serum albumin; also called F0271000187; F27100187
Human OX40L [1]
  Kd: 0.0778 nM
Human serum albumin
  Kd: 6.6 nM
Rhesus IL-13
  Kd: 0.0232 nM
Human CD30L
  binding result: no binding (tested: 1 µM)
Human TRAIL
  binding result: no binding (tested: 1 µM)
Human IL-4
  binding result: no binding (tested: 1 µM)
Human RANKL
  binding result: no binding (tested: 1 µM)
Human CD40L
  binding result: no binding (tested: 1 µM)
Human OX40L [2]
  Kd: 0.125 nM
